Our source for the Kd and fold decrease in affinity against wild-type RXFP1(1-72) values is publication doi:10.1101/2021.06.06.446989.

Like-named read-outs stand apart in the source and are kept apart here.

The target in assay [1] is RXFP1, wild-type receptor expressed on HEK293T cells (human) (UniProt Q9HBX9). The assay can be described thus: saturation binding of Europium-labelled ligand on cells.
Assay [2] concerns the target RXFP2F11, chimera of the LDLa and GDxxGWxxxF motif (Met1-Phe51) of RXFP2 and the remainder of RXFP1 (human). The description is as above.
Assay [3] has as its target RXFP2(1-65)-ExLink2 (human). The assay can be described thus: NMR titration.
Assay [4] has as its target RXFP1(1-72), RXFP1 LDLa module and its 32-residue linker (human). The assay can be described thus: NMR titration.
Assay [5] addresses RXFP2(1-65), RXFP2 LDLa module and its 26-residue linker (human). Nature of the assay: NMR titration.
The target in assay [6] is RXFP2(1-65)-ExLink2 (human). Nature of the assay: NMR titration. The source holds these as a separate data set.
Assay [7] addresses RXFP1(1-72), RXFP1 LDLa module and its 32-residue linker (human). The assay can be described thus: NMR titration. The source holds these as a separate data set.
The target of the next assay is D42A-RXFP1(1-72) (human). Nature of the assay: NMR titration.
A further assay has as its target W46A-RXFP1(1-72) (human). The assay can be described thus: NMR titration.
Assay [8] has as its target RXFP1(1-72)-L7K/K17A (human). Nature of the assay: 15N-CPMG relaxation dispersion NMR.
The target of assay [9] is RXFP1(1-72), RXFP1 LDLa module and its 32-residue linker (human). The assay can be described thus: 15N-CPMG relaxation dispersion NMR.

Sequence of UniProt Q9HBX9 (Q9HBX9 whole entry): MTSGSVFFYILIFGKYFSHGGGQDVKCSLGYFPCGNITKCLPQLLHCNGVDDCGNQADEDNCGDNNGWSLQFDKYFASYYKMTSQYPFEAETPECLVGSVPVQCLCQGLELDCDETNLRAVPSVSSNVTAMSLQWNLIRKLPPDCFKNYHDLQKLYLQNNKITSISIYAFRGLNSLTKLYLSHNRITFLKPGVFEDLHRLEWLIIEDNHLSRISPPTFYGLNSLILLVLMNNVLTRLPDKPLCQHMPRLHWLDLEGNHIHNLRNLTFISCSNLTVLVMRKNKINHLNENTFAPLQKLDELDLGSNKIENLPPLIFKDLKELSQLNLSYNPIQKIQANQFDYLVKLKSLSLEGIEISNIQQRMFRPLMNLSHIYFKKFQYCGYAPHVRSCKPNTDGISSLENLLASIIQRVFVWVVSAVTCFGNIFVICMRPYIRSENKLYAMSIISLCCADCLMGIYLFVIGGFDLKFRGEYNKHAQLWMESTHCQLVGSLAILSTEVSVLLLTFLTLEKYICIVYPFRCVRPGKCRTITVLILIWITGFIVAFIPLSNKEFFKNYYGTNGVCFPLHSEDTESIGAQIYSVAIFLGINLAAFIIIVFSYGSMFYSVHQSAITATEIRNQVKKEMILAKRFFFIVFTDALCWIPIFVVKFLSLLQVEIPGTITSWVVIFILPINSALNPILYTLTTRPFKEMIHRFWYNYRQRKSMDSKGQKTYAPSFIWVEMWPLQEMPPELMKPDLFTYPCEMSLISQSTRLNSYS

By Kd is commonly meant the free concentration of one partner at which half of the binding sites on the other are occupied at equilibrium, for simple one-to-one binding. The low end stands for higher affinity, the high end for lower affinity. With “H2 relaxin, native recombinant (serelaxin), Europium-labelled for the binding assay (ligand)”, the results for the equilibrium dissociation constant (Kd) in assay [1] and in assay [2] were 0.0006 µM and over 0.02 µM, respectively.

As to “amidated H2 relaxin (both the A and B-chain C-termini amidated) (ligand)”, the equilibrium dissociation constant (Kd) turned out to be 482 µM in assay [3]; 442 µM in assay [4]; 205 µM in [5]; 171 µM in assay [6]; 85 µM in assay [7]; 30 µM in [8]. In [9], the Kd worked out at 25 µM. Besides, the fold decrease in affinity against wild-type RXFP1(1-72) with D42A-RXFP1(1-72) (human) and with W46A-RXFP1(1-72) (human) was 4 fold throughout.
